{
  "source": "patent US20100167314A1",
  "biological_target": "human pNBC1 (pancreas-type Na/HCO3 cotransporter 1) (human), Q9Y6R1",
  "sequence (Q9Y6R1 whole entry)": "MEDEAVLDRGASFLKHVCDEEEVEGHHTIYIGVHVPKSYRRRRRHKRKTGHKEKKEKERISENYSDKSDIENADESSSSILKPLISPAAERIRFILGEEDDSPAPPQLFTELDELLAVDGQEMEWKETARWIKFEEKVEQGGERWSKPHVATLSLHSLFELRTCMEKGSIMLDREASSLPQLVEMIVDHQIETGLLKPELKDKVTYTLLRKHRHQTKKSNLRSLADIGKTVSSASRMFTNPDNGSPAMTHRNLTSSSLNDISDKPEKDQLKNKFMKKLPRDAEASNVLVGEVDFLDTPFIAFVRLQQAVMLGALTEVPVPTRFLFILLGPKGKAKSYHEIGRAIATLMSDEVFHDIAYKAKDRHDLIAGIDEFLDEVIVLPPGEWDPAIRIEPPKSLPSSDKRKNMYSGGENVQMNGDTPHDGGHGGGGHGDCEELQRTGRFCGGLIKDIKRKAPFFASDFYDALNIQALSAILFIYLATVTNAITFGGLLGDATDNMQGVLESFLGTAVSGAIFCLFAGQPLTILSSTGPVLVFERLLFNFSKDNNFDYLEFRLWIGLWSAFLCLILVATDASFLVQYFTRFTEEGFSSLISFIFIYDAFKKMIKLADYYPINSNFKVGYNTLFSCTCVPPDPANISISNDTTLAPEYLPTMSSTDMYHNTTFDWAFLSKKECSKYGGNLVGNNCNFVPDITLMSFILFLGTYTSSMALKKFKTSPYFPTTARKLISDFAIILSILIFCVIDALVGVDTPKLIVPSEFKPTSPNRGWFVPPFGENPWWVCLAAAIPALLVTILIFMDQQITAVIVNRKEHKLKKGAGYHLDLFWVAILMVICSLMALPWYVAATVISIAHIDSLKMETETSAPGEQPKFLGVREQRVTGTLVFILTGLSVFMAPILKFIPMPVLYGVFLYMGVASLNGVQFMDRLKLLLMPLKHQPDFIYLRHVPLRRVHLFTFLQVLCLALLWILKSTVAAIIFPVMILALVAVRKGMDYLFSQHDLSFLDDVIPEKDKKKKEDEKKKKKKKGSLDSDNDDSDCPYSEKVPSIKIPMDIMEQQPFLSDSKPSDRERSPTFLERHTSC",
  "experiment": "cell-based or functional assay",
  "data": [
    {"binder": "mouse IRBIT (IP3 receptor-binding protein; IP3R-binding protein released with inositol 1,4,5-trisphosphate), Q80SW1 1-530 (protein) MSMPDAMPLPGVGEELKQAKEIEDAEKYSFMATVTKAPKKQIQFADDMQEFTKFPTKTGRRSLSRSISQSSTDSYSSAASYTDSSDDEVSPREKQQTNSKGSSNFCVKNIKQAEFGRREIEIAEQDMSALISLRKRAQGEKPLAGAKIVGCTHITAQTAVLIETLCALGAQCRWSACNIYSTQNEVAAALAEAGVAVFAWKGESEDDFWWCIDRCVNMDGWQANMILDDGGDLTHWVYKKYPNVFKKIRGIVEESVTGVHRLYQLSKAGKLCVPAMNVNDSVTKQKFDNLYCCRESILDGLKRTTDVMFGGKQVVVCGYGEVGKGCCAALKALGAIVYITEIDPICALQACMDGFRVVKLNEVIRQVDVVITCTGNKNVVTREHLDRMKNSCIVCNMGHSNTEIDVTSLRTPELTWERVRSQVDHVIWPDGKRVVLLAEGRLLNLSCSTVPTFVLSITATTQALALIELYNAPEGRYKQDVYLLPKKMDEYVASLHLPSFDAHLTELTDDQAKYLGLNKNGPFKPNYYRY", "values": [
      {"measurement": "current change at a membrane potential of -25 mV when ND96 solution was replaced by ND96+HCO3- solution (voltage clamp, Xenopus oocytes)", "result": "6 to 7", "unit": "times"}
    ]}
  ]
}
